# Results as given in patent US20210015931A1 (KOREA INSTITUTE OF SCIENCE AND TECHNOLOGY, published 2021).
# Target: T1, CD47 receptors on HT-29 cells (human-derived colon cancer cells) (human, UniProt Q08722 19-323)
# T1 construct: whole, on cells
# Experiment: confocal microscopy on HT-29 cells, uptake with and without CD47 antibody
# Experimental: It was investigated whether the fusion protein-siRNA complex prepared in Example 2 is effectively taken up into cells in vitro. First, 2×10⁵ HT-29 cells, which are human-derived colon cancer cells, were seeded onto a 35-mm cover glass bottom dish. Then, after adding SIRPα protein (SIRPα), CD47 siRNA or the fusion protein-siRNA complex prepared in Example 2 (SIPRα-CD47 siRNA), the cells were cultured at 37° C. for a day. Then, CD47 SiRNA was stained red by using the TOTO3 stain. Next, after treating with the fusion protein-siRNA complex separated and purified in Example 2 at a concentration of 100 pmol/mL, the cells were cultured for 4 hours in a carbon dioxide incubator at 37° C. Then, the cells were treated with a fixative and the SIRPα protein was stained green using FITC-labeled His-tag antibody. After staining the nuclei of the cells by treating with a 4′,6-diamidino-2-phenylindole (DAPI) solution for 10 minutes, fluorescence was measured by confocal microscopy.
# A mixture solution of the fusion protein-siRNA complex prepared in Example 2 and the CD47 antibody (Ab) was used as a control group.
# T1 sequence (Q08722 19-323): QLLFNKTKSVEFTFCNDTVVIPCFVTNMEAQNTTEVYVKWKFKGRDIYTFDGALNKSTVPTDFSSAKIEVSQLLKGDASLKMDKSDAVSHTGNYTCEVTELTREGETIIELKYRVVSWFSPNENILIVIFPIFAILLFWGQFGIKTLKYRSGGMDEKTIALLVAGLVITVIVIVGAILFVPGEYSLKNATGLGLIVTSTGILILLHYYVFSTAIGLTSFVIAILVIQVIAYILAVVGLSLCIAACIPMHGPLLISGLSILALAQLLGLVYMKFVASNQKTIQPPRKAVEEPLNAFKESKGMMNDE
binder,measurement,value
"fusion protein-siRNA complex prepared in Example 2 (SIRPα-CD47 siRNA) (other, CD47 siRNA (sense SEQ ID NO: 17, antisense SEQ ID NO: 18) bound 1:1 through maleimide at the 3'-end of the sense strand to the thiol group of the cysteine at the end of the fusion protein, The protein was expressed from pET28a in E. coli, purified on a His-tag column and detected with a His-tag antibody; also called SIPRα-CD47 siRNA; immunoregulatory protein-siRNA complex) EEELQIIQPDKSVLVAAGETATLRCTITSLFPVGPIQWFRGAGPGRVLIYNQRQGPFPRVTTVSDTTKRNNMDFSIRIGNITPADAGTYYCIKFRKGSPDDVEFKSGAGTELSVRAKPVDGGFLGGGGCG",binding result,binds
